From patent WO2016171242A1 (dated 2016)

Columns and labels:
[1] = molecular target: T1, human EPHB3 without signal sequence, FLAG-tagged, expressed from pFLAG-EPHB3 (human, UniProt P54753 38-998); assay: flow cytometry on transfected 293F cells
T1 construct: not shown: FLAG tag supplied by the vector pFLAG-GW
T1 sequence: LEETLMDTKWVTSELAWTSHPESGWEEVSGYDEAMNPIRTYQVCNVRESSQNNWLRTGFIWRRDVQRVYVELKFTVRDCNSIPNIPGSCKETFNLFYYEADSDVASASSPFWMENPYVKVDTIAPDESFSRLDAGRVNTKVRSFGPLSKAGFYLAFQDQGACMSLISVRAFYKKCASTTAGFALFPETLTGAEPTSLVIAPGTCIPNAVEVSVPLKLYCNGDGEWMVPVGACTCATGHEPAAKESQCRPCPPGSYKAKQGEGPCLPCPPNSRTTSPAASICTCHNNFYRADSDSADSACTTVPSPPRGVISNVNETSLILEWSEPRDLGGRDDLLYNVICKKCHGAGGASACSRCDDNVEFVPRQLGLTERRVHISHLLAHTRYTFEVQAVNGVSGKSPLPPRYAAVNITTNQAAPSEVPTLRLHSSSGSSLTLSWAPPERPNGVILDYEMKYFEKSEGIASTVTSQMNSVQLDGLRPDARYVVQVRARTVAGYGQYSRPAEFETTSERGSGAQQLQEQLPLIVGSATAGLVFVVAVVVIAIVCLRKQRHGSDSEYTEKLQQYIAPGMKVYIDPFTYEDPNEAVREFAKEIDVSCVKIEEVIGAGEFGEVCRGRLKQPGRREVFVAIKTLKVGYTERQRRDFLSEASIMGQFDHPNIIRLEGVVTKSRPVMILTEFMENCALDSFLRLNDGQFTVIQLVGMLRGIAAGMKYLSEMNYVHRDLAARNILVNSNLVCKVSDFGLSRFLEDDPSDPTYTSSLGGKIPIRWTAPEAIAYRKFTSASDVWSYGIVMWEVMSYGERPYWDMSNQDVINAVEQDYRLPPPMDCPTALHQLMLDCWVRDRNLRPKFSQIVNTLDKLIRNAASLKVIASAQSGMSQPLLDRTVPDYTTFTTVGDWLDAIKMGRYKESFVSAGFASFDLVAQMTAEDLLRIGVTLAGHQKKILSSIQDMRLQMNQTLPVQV

[2] = molecular target: T2, human EPHA3 without signal sequence, FLAG-tagged, expressed from pFLAG-EPHA3 (human, UniProt P29320 21-983); assay: flow cytometry on transfected 293F cells
T2 construct: not shown: FLAG tag supplied by the vector pFLAG-GW
T2 sequence: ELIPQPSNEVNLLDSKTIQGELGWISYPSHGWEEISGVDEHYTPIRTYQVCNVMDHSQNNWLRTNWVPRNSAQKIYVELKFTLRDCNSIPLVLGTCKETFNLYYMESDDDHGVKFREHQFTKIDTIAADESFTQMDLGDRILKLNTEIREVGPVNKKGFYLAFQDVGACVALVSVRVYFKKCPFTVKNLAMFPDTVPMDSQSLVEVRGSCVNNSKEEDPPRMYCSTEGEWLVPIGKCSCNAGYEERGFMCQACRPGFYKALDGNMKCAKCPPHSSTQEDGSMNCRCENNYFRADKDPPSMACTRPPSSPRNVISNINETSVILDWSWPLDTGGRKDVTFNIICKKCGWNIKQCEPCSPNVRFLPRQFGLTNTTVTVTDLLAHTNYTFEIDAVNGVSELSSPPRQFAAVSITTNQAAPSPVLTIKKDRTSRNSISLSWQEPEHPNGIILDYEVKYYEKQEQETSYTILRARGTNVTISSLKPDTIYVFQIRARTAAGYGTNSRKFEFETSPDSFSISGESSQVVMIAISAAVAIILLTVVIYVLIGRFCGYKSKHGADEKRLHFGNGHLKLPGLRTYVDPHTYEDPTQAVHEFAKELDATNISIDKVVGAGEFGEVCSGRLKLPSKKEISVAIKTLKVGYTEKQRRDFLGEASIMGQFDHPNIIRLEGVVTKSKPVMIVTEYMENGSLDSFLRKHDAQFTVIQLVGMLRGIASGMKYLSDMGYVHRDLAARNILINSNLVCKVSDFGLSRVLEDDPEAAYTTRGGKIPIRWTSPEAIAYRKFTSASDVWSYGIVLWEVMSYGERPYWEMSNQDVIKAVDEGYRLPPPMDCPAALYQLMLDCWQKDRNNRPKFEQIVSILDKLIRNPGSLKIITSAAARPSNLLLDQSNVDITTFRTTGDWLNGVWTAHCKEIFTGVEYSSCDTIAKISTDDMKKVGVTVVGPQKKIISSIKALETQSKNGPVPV

[3] = molecular target: T3, human EPHA7 without signal sequence, FLAG-tagged, expressed from pFLAG-EPHA7 (human, UniProt Q15375 28-998); assay: flow cytometry on transfected 293F cells
T3 construct: not shown: FLAG tag supplied by the vector pFLAG-GW
T3 sequence (Q15375 28-998): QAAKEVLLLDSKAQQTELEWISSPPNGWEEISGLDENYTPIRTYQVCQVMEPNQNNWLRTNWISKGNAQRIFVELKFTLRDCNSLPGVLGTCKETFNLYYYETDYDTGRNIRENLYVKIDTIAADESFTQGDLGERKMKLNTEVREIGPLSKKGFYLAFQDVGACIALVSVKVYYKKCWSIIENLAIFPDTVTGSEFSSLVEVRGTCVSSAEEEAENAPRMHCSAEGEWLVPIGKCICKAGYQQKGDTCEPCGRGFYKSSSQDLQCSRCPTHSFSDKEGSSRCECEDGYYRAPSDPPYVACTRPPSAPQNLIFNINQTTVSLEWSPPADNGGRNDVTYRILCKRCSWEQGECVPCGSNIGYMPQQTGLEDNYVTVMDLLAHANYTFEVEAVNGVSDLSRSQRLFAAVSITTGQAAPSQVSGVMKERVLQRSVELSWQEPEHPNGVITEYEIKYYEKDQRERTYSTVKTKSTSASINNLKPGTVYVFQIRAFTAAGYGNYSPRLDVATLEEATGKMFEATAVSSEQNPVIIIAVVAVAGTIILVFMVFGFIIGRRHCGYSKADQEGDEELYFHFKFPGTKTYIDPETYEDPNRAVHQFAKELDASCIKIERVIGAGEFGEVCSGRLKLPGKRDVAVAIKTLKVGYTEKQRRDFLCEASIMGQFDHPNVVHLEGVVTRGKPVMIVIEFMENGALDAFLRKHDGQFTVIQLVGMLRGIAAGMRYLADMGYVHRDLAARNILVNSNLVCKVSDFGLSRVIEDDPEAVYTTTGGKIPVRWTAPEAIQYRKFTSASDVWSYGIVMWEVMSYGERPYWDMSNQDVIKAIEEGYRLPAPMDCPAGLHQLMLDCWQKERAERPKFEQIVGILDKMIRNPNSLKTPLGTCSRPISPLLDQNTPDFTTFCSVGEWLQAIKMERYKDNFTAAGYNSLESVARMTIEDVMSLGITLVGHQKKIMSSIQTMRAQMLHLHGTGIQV

[4] = molecular target: T4, human EPHA5 without signal sequence, FLAG-tagged, expressed from pFLAG-EPHA5 (human, UniProt P54756 56-1037); assay: flow cytometry on transfected 293F cells
T4 construct: not shown: FLAG tag supplied by the vector pFLAG-GW
T4 sequence (P54756 56-1037): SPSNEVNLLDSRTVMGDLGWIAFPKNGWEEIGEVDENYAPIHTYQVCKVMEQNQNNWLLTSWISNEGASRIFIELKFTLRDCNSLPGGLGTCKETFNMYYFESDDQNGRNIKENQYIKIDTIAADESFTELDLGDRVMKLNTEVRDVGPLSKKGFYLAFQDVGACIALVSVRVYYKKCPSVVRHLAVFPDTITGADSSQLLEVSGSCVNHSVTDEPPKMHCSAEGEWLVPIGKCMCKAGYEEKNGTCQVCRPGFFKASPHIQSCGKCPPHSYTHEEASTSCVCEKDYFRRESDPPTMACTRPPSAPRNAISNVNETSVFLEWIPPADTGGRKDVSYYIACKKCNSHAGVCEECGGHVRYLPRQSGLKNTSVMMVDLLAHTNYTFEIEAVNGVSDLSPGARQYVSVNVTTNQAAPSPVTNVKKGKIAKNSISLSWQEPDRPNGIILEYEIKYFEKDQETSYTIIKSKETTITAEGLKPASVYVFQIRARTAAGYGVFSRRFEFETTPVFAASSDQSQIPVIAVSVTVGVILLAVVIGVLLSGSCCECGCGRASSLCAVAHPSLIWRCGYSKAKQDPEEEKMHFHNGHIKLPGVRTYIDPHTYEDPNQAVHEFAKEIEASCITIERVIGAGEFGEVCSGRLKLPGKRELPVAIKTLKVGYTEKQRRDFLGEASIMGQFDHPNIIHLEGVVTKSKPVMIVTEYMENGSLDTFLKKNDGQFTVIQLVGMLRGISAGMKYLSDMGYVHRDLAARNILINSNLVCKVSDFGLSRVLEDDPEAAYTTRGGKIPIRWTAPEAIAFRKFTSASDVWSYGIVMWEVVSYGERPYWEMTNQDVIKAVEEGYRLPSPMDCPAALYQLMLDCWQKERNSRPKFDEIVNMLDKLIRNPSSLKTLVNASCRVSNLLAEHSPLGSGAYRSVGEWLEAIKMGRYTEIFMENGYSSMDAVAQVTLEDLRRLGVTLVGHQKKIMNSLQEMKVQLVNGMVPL

[5] = molecular target: T5, human EPHA2 without signal sequence, FLAG-tagged, expressed from pFLAG-EPHA2 (human, UniProt P29317 24-976); assay: immunohistochemistry on formalin-fixed, paraffin-embedded 293F cells transiently expressing EPHA2; antibody at 2.5 μg/mL
T5 construct: formalin-fixed, paraffin-embedded; not shown: FLAG tag supplied by the vector pFLAG-GW (from pFLAG-myc-CMV19)
T5 sequence (P29317 24-976): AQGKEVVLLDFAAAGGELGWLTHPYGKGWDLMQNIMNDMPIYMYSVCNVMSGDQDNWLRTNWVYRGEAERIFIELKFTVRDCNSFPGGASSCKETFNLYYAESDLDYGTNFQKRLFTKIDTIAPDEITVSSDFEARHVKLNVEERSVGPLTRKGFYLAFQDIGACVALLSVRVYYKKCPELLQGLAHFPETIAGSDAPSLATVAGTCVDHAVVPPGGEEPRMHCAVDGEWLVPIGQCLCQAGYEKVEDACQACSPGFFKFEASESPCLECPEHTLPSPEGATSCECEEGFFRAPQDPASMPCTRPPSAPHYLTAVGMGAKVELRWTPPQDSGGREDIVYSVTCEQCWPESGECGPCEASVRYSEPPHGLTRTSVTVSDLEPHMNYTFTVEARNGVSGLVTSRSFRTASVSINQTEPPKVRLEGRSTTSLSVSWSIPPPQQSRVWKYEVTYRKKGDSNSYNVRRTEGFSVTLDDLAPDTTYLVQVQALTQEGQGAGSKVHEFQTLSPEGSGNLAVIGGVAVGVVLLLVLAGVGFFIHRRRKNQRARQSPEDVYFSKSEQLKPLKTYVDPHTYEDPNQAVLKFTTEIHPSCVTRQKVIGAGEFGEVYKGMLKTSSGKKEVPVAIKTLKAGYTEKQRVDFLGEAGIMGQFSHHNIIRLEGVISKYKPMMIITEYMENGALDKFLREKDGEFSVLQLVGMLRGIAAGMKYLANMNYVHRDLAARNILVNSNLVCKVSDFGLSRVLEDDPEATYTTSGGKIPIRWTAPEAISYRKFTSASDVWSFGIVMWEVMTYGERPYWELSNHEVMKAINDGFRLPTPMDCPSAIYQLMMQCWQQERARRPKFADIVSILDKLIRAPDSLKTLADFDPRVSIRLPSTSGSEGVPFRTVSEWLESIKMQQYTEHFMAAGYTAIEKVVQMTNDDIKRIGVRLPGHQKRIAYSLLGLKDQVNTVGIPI

[6] = molecular target: T6, endogenous human EPHA2 (on MDA-MB-231 cells or 293F cells) (human, UniProt P29317 24-976); assay: immunohistochemistry on formalin-fixed, paraffin-embedded MDA-MB-231 cells
T6 construct: Untagged protein made by the cell lines themselves; also called endogenous EPHA2; EPHA2 endogenously expressed MDA-MB-231 cells
T6 sequence (P29317 24-976): as above

B1: mouse anti-human EPHA2 antibody A205 (antibody, V domains shown)
VH: QIQLVQSGPELKKPGETVKISCKASGYTFTDYSMNWVKQAPGKGLKWMGWINTYTGEPTYADDFKGRFAFSLETSASTAYLQINNLKNEDTATYFCASPISLLRLLDYWGQGTTLTVSS
VL: DVVMTQTPLSLPVSLGDQASIPCRSSQSLVHSNGNTYLHWYLQKPGQSPKLLIYKVSNRFSGVPDRFSGSGSGTDFTLKISRVEAEDLGVYFCSQSTHVPWTFGGGTKLEIKR
notes: Mouse monoclonal antibody purified from hybridoma supernatant, isotype IgG2b; also called A205 antibody
binding result [1]: no binding
binding result [2]: no binding
binding result [3]: no binding
binding result [4]: no binding
binding result [5]: binds
binding result [6]: binds

B2: mouse anti-human EPHA2 antibody A201 (antibody, V domains shown)
VH: EVQLQQSGAELVKPGASVKLSCTVSGFTFKDTYVHWVKQRPEQGLEWIGRIDPANANTKYDPKFQGKASITADTSSNTAYLQLSSLPSEDTAVYYCAAYGKSAWFAYWGQGTLVTVSA
VL: DIQMTQTTSSLSASLGDRVTISCRASQDIGNYLNWYQQKPDGTVKVLIYYTSRLHSGVPSRFSGSGSGTDYSLTISNLEQEDIATYFCQQGHSLPPTFGGGTKLEIKR
notes: Mouse monoclonal antibody purified from hybridoma supernatant, isotype IgG1; also called A201 antibody
binding result [1]: no binding
binding result [2]: no binding
binding result [3]: no binding
binding result [4]: no binding
binding result [5]: binds
binding result [6]: binds
